The test has as its target NPM1 (human wildtype nucleophosmin, residues 1 to 290), purified recombinant (human, UniProt P06748 1-290). The experiment in a line: SPR; NPM1 immobilised, DDX24^WT as analyte. (In general: In SPR one partner is held on a chip, and binding of the other changes the refractive index at the surface.)

The record followed here is paper PMC10496494 (2023).

NPM1 (human wildtype nucleophosmin, residues 1 to 290), purified recombinant, sequence (P06748 1-290): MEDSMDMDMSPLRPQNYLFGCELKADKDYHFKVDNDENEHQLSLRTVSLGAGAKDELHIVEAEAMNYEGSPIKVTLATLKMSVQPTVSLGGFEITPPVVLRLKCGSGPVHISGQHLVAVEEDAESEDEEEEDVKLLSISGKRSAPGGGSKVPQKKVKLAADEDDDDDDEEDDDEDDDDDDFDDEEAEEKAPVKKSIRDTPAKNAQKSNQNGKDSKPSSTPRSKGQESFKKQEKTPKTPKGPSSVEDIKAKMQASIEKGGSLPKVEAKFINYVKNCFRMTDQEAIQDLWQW

B1: DDX24^WT (human wildtype DDX24, residues 28 to 859), purified recombinant (domain or fragment)
chain: KWKEVKIDPNMFADGQMDDLVCFEELTDYQLVSPAKNPSSLFSKEAPKRKAQAVSEEEEEEEGKSSSPKKKIKLKKSKNVATEGTSTQKEFEVKDPELEAQGDDMVCDDPEAGEMTSENLVQTAPKKKKNKGKKGLEPSQSTAAKVPKKAKTWIPEVHDQKADVSAWKDLFVPRPVLRALSFLGFSAPTPIQALTLAPAIRDKLDILGAAETGSGKTLAFAIPMIHAVLQWQKRNAAPPPSNTEAPPGETRTEAGAETRSPGKAEAESDALPDDTVIESEALPSDIAAEARAKTGGTVSDQALLFGDDDAGEGPSSLIREKPVPKQNENEEENLDKEQTGNLKQELDDKSATCKAYPKRPLLGLVLTPTRELAVQVKQHIDAVARFTGIKTAILVGGMSTQKQQRMLNRRPEIVVATPGRLWELIKEKHYHLRNLRQLRCLVVDEADRMVEKGHFAELSQLLEMLNDSQYNPKRQTLVFSATLTLVHQAPARILHKKHTKKMDKTAKLDLLMQKIGMRGKPKVIDLTRNEATVETLTETKIHCETDEKDFYLYYFLMQYPGRSLVFANSISCIKRLSGLLKVLDIMPLTLHACMHQKQRLRNLEQFARLEDCVLLATDVAARGLDIPKVQHVIHYQVPRTSEIYVHRSGRTARATNEGLSLMLIGPEDVINFKKIYKTLKKDEDIPLFPVQTKYMDVVKERIRLARQIEKSEYRNFQACLHNSWIEQAAAALEIELEEDMYKGGKADQQEERRRQKQMKVLKKELRHLLSQPLFTESQKTKYPTQSGKPPLLVSAPSKSESALSCLSKQKKKKTKKPKEPQPEQPQPSTSAN
By Kd is commonly meant a measure of binding affinity in units of concentration. On to B1, for which the Kd is 2.4 nM.
